The results in this text go back to US20170129940A1 (INSTITUTE FOR RESEARCH IN BIOMEDICINE, published 2017).

Positions count from the first letter of the chain named.

In assay [1] the target is T1, hCMV gB (expressed in HEK293T cells) (human cytomegalovirus, UniProt P06473 32-906). Kind of assay: cell-based or functional assay.
Assay [2] concerns the target T1, hCMV gB (expressed in HEK293T cells). The assay is described as follows: competitor: 4H9-biotin; cell staining.
Assay [3] has the same target. The assay is described as follows: competitor: 10C6-biotin; cell staining.
For assay [4] the target is unchanged. The assay is described as follows: competitor: 2B11-biotin; cell staining.
The target is the same in assay [5]. Kind of assay: competitor: 5F1-biotin; cell staining.
The target is the same in assay [6]. Kind of assay: cell-based or functional assay. The source holds these as a separate data set.
Assay [7] shares this target. The assay is described as follows: cell-based or functional assay. This is another data set of the same source.
Assay [8] has the same target. The assay is described as follows: competitor: 6B4-biotin; cell staining.
For assay [9] the target is unchanged. The assay is described as follows: competitor: 7H3-biotin; cell staining.
Assay [10] addresses T2, hCMV gM + gN (co-expressed in HEK293T cells) (human cytomegalovirus, UniProt P16733 1-372; P16795 22-138).
T2 sequence 1: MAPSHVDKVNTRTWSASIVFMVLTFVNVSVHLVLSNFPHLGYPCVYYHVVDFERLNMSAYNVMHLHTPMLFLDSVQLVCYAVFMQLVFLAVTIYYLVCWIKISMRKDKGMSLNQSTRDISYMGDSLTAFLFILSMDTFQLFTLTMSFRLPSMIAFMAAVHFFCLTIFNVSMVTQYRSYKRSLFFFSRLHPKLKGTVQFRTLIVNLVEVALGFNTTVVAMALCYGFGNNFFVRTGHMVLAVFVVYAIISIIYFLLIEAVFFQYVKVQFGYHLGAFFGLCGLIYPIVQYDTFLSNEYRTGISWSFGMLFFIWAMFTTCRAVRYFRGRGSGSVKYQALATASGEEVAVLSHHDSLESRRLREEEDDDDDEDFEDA
T2 sequence 2: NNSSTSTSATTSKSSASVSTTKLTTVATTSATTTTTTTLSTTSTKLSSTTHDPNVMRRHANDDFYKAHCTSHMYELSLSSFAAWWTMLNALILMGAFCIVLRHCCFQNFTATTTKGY
Kind of assay: cell-based or functional assay.

The target in assay [11] is T2, hCMV gM + gN (co-expressed in HEK293T …). Kind of assay: cell-based or functional assay. The source holds these as a separate data set.
In assay [12] the target is T3, hCMV gH + gL + UL128 + UL130 (co-expressed in HEK293T cells) (human cytomegalovirus, UniProt P12824 24-743; P16832 31-278; P16837 28-171; P16772 1-214). Kind of assay: cell-based or functional assay.
The target in assay [13] is T3, hCMV gH + gL + UL128 + UL130 …. Kind of assay: cell-based or functional assay. The source holds these as a separate data set.
Assay [14] deals with T4, hCMV UL128 (expressed in HEK293T cells) (human cytomegalovirus, UniProt P16837 28-171).
T4 sequence: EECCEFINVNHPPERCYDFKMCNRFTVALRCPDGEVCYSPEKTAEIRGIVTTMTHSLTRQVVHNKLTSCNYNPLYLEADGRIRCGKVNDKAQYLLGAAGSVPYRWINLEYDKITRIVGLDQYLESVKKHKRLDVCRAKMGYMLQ
Kind of assay: cell-based or functional assay.

The target in assay [15] is T4, hCMV UL128 (expressed in HEK293T cells). The assay is described as follows: cell-based or functional assay. The source holds these as a separate data set.

T1 sequence (P06473 32-906 limits assumed): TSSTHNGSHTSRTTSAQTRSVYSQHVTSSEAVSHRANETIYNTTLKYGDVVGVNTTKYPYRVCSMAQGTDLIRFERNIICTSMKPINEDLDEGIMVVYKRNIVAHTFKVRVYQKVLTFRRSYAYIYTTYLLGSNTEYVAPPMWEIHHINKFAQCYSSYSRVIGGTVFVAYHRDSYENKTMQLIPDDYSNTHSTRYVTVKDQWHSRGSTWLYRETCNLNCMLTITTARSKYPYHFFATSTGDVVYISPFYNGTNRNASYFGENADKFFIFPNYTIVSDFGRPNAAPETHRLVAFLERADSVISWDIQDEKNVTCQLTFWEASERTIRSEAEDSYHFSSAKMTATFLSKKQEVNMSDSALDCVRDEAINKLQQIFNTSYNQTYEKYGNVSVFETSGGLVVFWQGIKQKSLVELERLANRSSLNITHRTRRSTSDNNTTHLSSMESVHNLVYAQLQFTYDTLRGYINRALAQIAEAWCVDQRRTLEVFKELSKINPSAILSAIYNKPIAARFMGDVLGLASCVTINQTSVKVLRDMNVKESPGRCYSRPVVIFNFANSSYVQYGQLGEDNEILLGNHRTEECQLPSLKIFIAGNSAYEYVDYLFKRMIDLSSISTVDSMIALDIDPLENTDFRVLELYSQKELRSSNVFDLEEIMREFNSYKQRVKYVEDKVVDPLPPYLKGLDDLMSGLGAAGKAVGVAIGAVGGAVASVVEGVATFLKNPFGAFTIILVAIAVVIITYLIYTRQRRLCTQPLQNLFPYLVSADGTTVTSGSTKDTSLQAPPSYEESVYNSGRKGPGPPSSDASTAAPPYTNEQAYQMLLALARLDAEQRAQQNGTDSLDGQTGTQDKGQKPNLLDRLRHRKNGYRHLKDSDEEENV

B1: 7H3 (antibody, V domains shown)
VH: QVQLVQSGAEVKNPGASVKVSCKASGYTFTDYYIHWVRQAPGQGLEWMGWFNPNSGGTNFVQNFQGRVTMTRDTSISTAYMELSRLRSDDTAMYYCAKDSAKTASAYYGLNFFYYGMDVWGQGTTVTVSS
VL: QSVLSQPPSASGTPGQRVTISCSGSSSNIGKNYVYWYQQVPGTAPKLLMFKNNQRPSGVPDRFSGSKSGTSASLAISGLRSEDEADYYCSAWDGSLSRPLFGGGTKVTVL
notes: human IgG; also called 7H3-biotin
Consider B1, for which, in assay [1], the “50% Neutralization BM-MSC” value came out at 2 µg/mL. The “50% Neutralization Mo-DC” value in assay [1] was 0.06 µg/mL. For the same molecule, the “Inhibition of binding (%)” value in [2] was 0%; in assay [3], 0%; in assay [4], 0%; in [5] it was 0%; in [8], 0%; in assay [9], 100%. Further, the “50% Neutralization ARPE” value in [6] is greater than 2 µg/mL. Moreover, the “50% Neutralization MRC-9” value in [6] was no more than 2 µg/mL. In addition, the “90% Neutralization ARPE” value in assay [7] amounted to 0.6 µg/mL. In addition, in assay [7], the “90% Neutralization MRC-9” value turned out to be 3 µg/mL.

B2: 6L3 (antibody, V domains shown)
VH: EVRLEESGGGLVQPGGSLRLSCAASGFTVSTTYMAWVRQAPGKGLEWVSLIHTGGIFGVGGTSYADSVKGRFTISRDTSKNTVSLQMSSLRVEDTAIYFCAREHRGTIDAFDAWGQGTVVIVSS
VL: DIHMTQSPSSLSASVGDRVTITCRASQNIRNYLNWYQHKPGKAPKLLIYTTSRLQSGVPSRFSGSGSGTDFTLTVNSLQPEDFASYYCQQSYDGWTFGQGTKVEMK
B2: the “50% Neutralization ARPE” value in assay [10] was no more than 2 µg/mL. Also, in assay [11], the “90% Neutralization ARPE” value came out at 10 µg/mL and the “90% Neutralization MRC-9” value came out at 30 µg/mL.

B3: 6B4 (antibody, V domains shown)
VH: QVQLVESGGGVVQPGRSLRLSCAASGFRFNEFNMHWVRQAPGKGLEWVAVISIDGRHKYNADSVEGRFTISRDNSRNTLYLQMNSLRVEDTALYYCVTDGKAVDGFSGILEFWGQGTPVTVST
VL: EIVLTQSPATLSLSPGERATLSCWASQSVGGYLAWYQQKPGQAPRLLIYDASIRATGIPARFSGSGSGTHFTLTINSLEPEDFAVYYCQQRNNWPPLTFGGGTKVEIK
notes: human IgG; also called 6B4-biotin
On to B3, for which the “50% Neutralization BM-MSC” value in assay [1] came out at 2 µg/mL. Besides, in assay [1], the “50% Neutralization Mo-DC” value amounted to 0.11 µg/mL. The “Inhibition of binding (%)” value in assay [2] turned out to be 0%; in assay [3], 0%; in assay [4] it was 0%; in assay [5] it was 0%; in assay [8], 100%; in assay [9] it was 0%. Besides, the “50% Neutralization ARPE” value in assay [6] was no more than 2 µg/mL. Moreover, in [6], the “50% Neutralization MRC-9” value is no more than 2 µg/mL. The “90% Neutralization ARPE” value in assay [7] was found to be 0.15 µg/mL. The “90% Neutralization MRC-9” value in [7] was found to be 1 µg/mL.

B4: 4H9 (antibody, V domains shown)
VH: AVQLVESGGGLVRPGGSLRLSCAASGFTFSSHEMHWVRQAPGKGLEWLSYIDFTGSIIYYADSVRGRFTISRDNTKKSLFLQMNSLRDEDTALYYCARDGGRWGTSWYYFDYWGQGVLVTVSS
VL: QSVLTQPPSVSGAPGQRVTITCTGSSSNFGAGYDGHWYQQLPGTAPKLLIYGSNRPSGVPDRFSGSKSGTSVSLAITGLQADDEADYYCQSYDSSLSAWVFGGGTKLTVL
notes: human IgG; also called 4H9-biotin
For the molecule B4, the “Inhibition of binding (%)” value is 100% in [2]; 100% in assay [3]; 100% in [4]; 100% in [5]; 0% in assay [8]; 0% in assay [9]. Further, in [6], the “50% Neutralization ARPE” value was no more than 2 µg/mL. In addition, in assay [6], the “50% Neutralization MRC-9” value is no more than 2 µg/mL. For the same molecule, in [7], the “90% Neutralization ARPE” value is 0.4 µg/mL. The “90% Neutralization MRC-9” value in [7] is 10 µg/mL.

B5: 8I21 (antibody, V domains shown)
VH: LVELVESGGGVVQPGRSLRLSCAASGFTFSSDGMHWVRQSPGRGLEWVAFISSDGSTPYYADSVKGRFTISRDNSKNTLYLQMNSLRAEDTAMYFCAKDWALFRWLRTFDHWGQGTLVTVSS
VL: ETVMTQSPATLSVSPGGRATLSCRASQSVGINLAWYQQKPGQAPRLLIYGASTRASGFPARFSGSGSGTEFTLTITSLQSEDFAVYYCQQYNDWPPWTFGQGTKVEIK
Consider B5, for which, in assay [12], the “50% Neutralization ARPE” value was less than 0.01 µg/mL and the “50% Neutralization MRC-9” value was greater than 2 µg/mL. In [13], the “90% Neutralization ARPE” value turned out to be 0.03 µg/mL and the “90% Neutralization MRC-9” value is greater than 10 µg/mL.

B6: 15D8 (antibody, V domains shown)
VH: EVQLVQSGAEVKKPGESLKISCQASGYSFTNYWIAWVRQMPGKGLEWMGIIYPGDSDIKYSPSFRGQVTISADKSISNAFLQWRSLRASDTAMYYCARHAIRGDGFDYWGQGTLVTVSS
VL: SYELTQPPSVSVSPGQTATITCSGDKLGEKYACWYQQKPGQSPVLVMYQDTKRPSGIPERFSGSNSGNTATLTISGTRAMDEADYYCQAWDTNTVIFGGGTKLTVL
Regarding B6, in assay [14], the “50% Neutralization ARPE” value was less than 0.001 µg/mL and the “50% Neutralization MRC-9” value is greater than 2 µg/mL. In assay [15], the “90% Neutralization ARPE” value turned out to be 0.008 µg/mL and the “90% Neutralization MRC-9” value was greater than 10 µg/mL.

B7: 5F1 (antibody, V domains shown)
VH: AVQLVESGGGLAQPGRSLRLSCKVSGFTFSSYEMNWVRQAPGKGLEWIAYIDFTGSTIYYADSVKGRFTISRDTARNSLYLQMNKLRVEDTAVYYCVRDAGRWGTSWYYFDYWGQGTLVTVSS
VL: QSVLTQPPSVSGAPGQRVTISCTGLSSNIGAGYDIHWYQQIPGKAPKLLIYGNNNRPSGVPDRFSGSKSGTSVSLAITGLQAEDEADYYCQSYDSSLNGWVFGGGTRLTVL
notes: human IgG; also called 5F1-biotin
Turning to B7, in assay [1], the “50% Neutralization BM-MSC” value was 0.3 µg/mL. In addition, the “50% Neutralization Mo-DC” value in assay [1] is 0.05 µg/mL. Moreover, the “Inhibition of binding (%)” value in [2] was 100%; in assay [3], 100%; in assay [4], 100%; in assay [5], 100%; in assay [8], 0%; in assay [9], 0%. Moreover, the “50% Neutralization ARPE” value in [6] was no more than 2 µg/mL. In assay [6], the “50% Neutralization MRC-9” value was no more than 2 µg/mL. Besides, the “90% Neutralization ARPE” value in assay [7] is 0.1 µg/mL. In addition, in [7], the “90% Neutralization MRC-9” value worked out at 0.5 µg/mL.

B8: 10C6 (antibody, V domains shown)
VH: B7 VH with T28S, S31N, Y32F, A61S
VL: B7 VL
notes: human IgG; also called 10C6-biotin
With B8, in assay [1], the “50% Neutralization BM-MSC” value came out at 0.3 µg/mL. Moreover, the “50% Neutralization Mo-DC” value in [1] was 0.02 µg/mL. Besides, the “Inhibition of binding (%)” value in assay [2] worked out at 100%; in assay [3], 100%; in [4] it was 100%; in [5], 100%; in assay [8], 0%; in [9] it was 0%. The “50% Neutralization ARPE” value in [6] was no more than 2 µg/mL. Also, in [6], the “50% Neutralization MRC-9” value was no more than 2 µg/mL. In [7], the “90% Neutralization ARPE” value was determined as 0.2 µg/mL. Besides, the “90% Neutralization MRC-9” value in assay [7] worked out at 0.75 µg/mL.

B9: 2B11 (antibody, V domains shown)
VH: B7 VH with Q3R, K23Q, S30G, D73N, K85S, L118R, S123P
VL: B7 VL with L25I, I50V, A82V, S95N
notes: human IgG; also called 2B11-biotin
B9: the “Inhibition of binding (%)” value stood at 100% in [2]; 100% in assay [3]; 100% in assay [4]; 100% in assay [5]; 0% in assay [8]; 0% in [9]. In addition, the “90% Neutralization ARPE” value in [7] was 0.2 µg/mL. The “90% Neutralization MRC-9” value in assay [7] was 0.75 µg/mL.
